Assay results from the supplement of paper PMC10567573.
± gives the standard deviation.

Experiment: protein stability index of a GFP-peptide fusion (GPS, HEK-293T) (PSI 1-6); higher = more stable
[1] = treatment: DMSO, c terminus: a fixed tail appended
[2] = treatment: MLN4924 1 uM, 8 h, c terminus: a fixed tail appended
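Also: 24-mer peptide tiles fused after GFP, lentivirally expressed, FACS-sorted into six equal bins by GFP/DsRed ratio, decoded by Illumina sequencing, PSI is the read-weighted mean bin number.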

Row | Sequence | protein stability index [1] | protein stability index [2] | protein stability index (treatment: DMSO, c terminus: native) | protein stability index (treatment: MLN4924 1 uM, 8 h, c terminus: native)
1 | KVQNECPGITRVYSIGRSVEGRHL [CPN1] | 3.08 ± 0.22 | 3.29 ± 0.5 |  | 
2 | KDTVICAMKITQEPQGLGYWEAWR [SPACA3] | 2.27 ± 0.49 | 2.22 ± 0.23 |  | 
3 | YDITKEETFSTLKNWVKELRQHGP [RAB22A] | 2.85 ± 0.49 | 3.24 ± 0.16 |  | 
4 | HLLEAEPLSPIQASSVHLKSESSL | 4.16 ± 0.1 | 4.14 ± 0.15 |  | 
5 | FLDLVKPEPVYKLTQRQVNITVQK [HACD3] | 2.56 ± 0.14 | 2.79 ± 0.44 |  | 
6 | SGIPEVKCYLNGVKVPGIVRLRTL [CLCN6] | 2.4 ± 0.53 | 1.91 ± 0.35 |  | 
7 | ECPTCGHSYNVTQRRPRVLSCLHS [RNF208] | 3.22 ± 0.17 | 3.45 ± 0.49 |  | 
8 | KKVYLTGFALDILFAIANGFSPSY [SLC22A15] | 2.68 ± 0.28 | 3.42 ± 0.22 |  | 
9 | AHFSPFLYYQSQELPNGSVKEAPA [PDZK1] | 3.45 ± 0.13 | 3.33 ± 0.13 |  | 
10 | GSLPGPGQTSGAREPPQAVSIKEA [VENTX] | 5.01 ± 0.41 | 5.52 ± 0.2 |  | 
11 | SPNPFPEISRGEYLYTYDSQITDS [ZNF8] | 4.08 ± 0.17 | 4.35 ± 0.38 |  | 
12 | AFADRDQSERQRHESQQLATETQA [TEKT4] | 5.11 ± 0.16 | 5.36 ± 0.31 |  | 
13 | ESAGPSRAVRQSVTSFPDADAFHH [EMD] | 4.33 ± 0.86 | 4.44 ± 0.18 |  | 
14 | ETEEMLGKKQEYLENRIQREIALA [CHMP4C] | 4.44 ± 0.14 | 4.58 ± 0.29 |  | 
15 | NTTEELEALITDPDEMRMQALLIR [FEM1A] | 3.93 ± 0.29 | 3.86 ± 0.27 |  | 
16 | DKPGTTQIVQLTQQVDTNISVILP [DENND6A] | 3.48 ± 0.23 | 3.68 ± 0.38 |  | 
17 | MEEDIDTRKINNSFLRDHSYATEA [PPP2R2B] | 4.77 ± 0.19 | 4.72 ± 0.12 |  | 
18 | TIENILDNDPRDLIGDFSKGYLFH [CDC25A] | 2.58 ± 0.38 | 2.69 ± 0.19 |  | 
19 | DNVAYARAFNTDHQTQLLYQASAM [RAD51] | 3.12 ± 0.047 | 3.27 ± 0.15 |  | 
20 | AHEVLQELRDISSMAMEYFDEKIV [FBXO28] | 3.14 ± 0.19 | 3.26 ± 0.45 |  | 
21 | DKYCPLLIKEGGMPLLRDIIKMAT [ZER1] | 2.46 ± 0.3 | 2.22 ± 0.31 |  | 
22 | TQDSARVNPQDGTNTLTRIAENGV [EHMT1] | 5.11 ± 0.16 | 5.1 ± 0.19 |  | 
23 | ERTRKPYNNDIDYYAKRNALRAAE [GALNT9] | 4.1 ± 0.13 | 4.26 ± 0.24 |  | 

Row | Sequence | protein stability index [1] | protein stability index [2] | protein stability index (treatment: DMSO, c terminus: native) | protein stability index (treatment: MLN4924 1 uM, 8 h, c terminus: native)
24 | FVEATRKWKVGIPSDPLVSIGALI [ALDH8A1] | 2.34 ± 1.1 | 2.16 ± 0.57 |  | 
25 | TAPEEVPKVSDQALVSAHSEWQRK [DMRTC1] | 4.88 ± 0.61 | 5.07 ± 0.39 |  | 
26 | GQFVFARDAKAAMAGRLMIRKLVA [AASDHPPT] | 2.08 ± 0.43 | 2.02 ± 0.46 |  | 
27 | HRWPPVWYLKEEDHYQRVKREREK [RHOBTB1] | 3.75 ± 0.34 | 4.03 ± 0.28 |  | 
28 | AILRVIRLVRVFRIFKLSRHSKGL [KCNA1] | 2.28 ± 0.36 | 2.46 ± 0.24 |  | 
29 | ESIRRAQVSQVKGAARLALLQGAG [FCHSD1] | 3.45 ± 0.12 | 3.36 ± 0.52 |  | 
30 | QRVLFSGSSDHSVIMWDIGGRKGT [WDFY2] | 2.8 ± 0.43 | 2.94 ± 0.14 |  | 
31 | SASEEEDTKPKPTKRKRKGSSAVG [INTS3] | 5.23 ± 0.23 | 5.38 ± 0.16 |  | 
32 | IVSNFNYFYHRETENEEQTQLTQN [KCNA4] | 3.03 ± 0.12 | 3.38 ± 0.25 |  | 
33 | LYVSGLPKTMSQKEMEQLFSQYGR [ELAVL3] | 2.55 ± 0.14 | 2.66 ± 0.39 |  | 
34 | QGEYSRKLEERFMTLAANHELMLR [CCDC89] | 3.15 ± 0.18 | 3.18 ± 0.25 |  | 
35 | EPDLRHLVLVVNTLRRIQASMAPA [SERTAD1] | 2.66 ± 0.11 | 2.51 ± 0.14 |  | 
36 | DMKVNPIQGLASKWDYEKNEWKK [COX4I1] |  |  | 4.45 ± 0.27 | 4.72 ± 0.24
37 | PTVPSAATSQPTPSQHSAHTSSQP [CCDC6] | 5.21 ± 0.13 | 5.22 ± 0.27 |  | 
38 | ALGWAPAAPPPLKDDPEGDRDGCV [ZBED3] | 5.34 ± 0.17 | 5.54 ± 0.3 |  | 
39 | GSAAPGSPLAADPACLGQPHTPGK [FOXJ1] | 5.25 ± 0.29 | 5.4 ± 0.13 |  | 
40 | SSGCFMEYLENQVIKDKDDSVDAQ [RNF180] | 4.59 ± 0.21 | 4.63 ± 0.19 |  | 
41 | ENCLSASAAQTDPTTGYRRLLRFS [LOXL2] | 3.34 ± 0.36 | 3.35 ± 0.4 |  | 
42 | EVNSRCYQPEPFACGIEHCSVHYV [FBXO34] | 2.58 ± 0.18 | 2.33 ± 0.67 |  | 
43 | DSFPEGPERLHAIKEQLIQEGLLD [HDAC6] | 4.94 ± 0.49 | 4.76 ± 0.27 |  | 
44 | HVLEGLFRTDPEAKVKLVFVEDQA [ZSWIM9] | 2.51 ± 0.19 | 2.74 ± 0.24 |  | 
45 | NYQVFQKVTDHATTALLHYQLPQM [MED27] | 2.52 ± 0.21 | 2.25 ± 0.24 |  | 
46 | LSTIEELIKDAIVSTQPAMMVNLR [C2CD2L] | 2.2 ± 0.29 | 2.35 ± 0.17 |  | 

Row | Sequence | protein stability index [1] | protein stability index [2] | protein stability index (treatment: DMSO, c terminus: native) | protein stability index (treatment: MLN4924 1 uM, 8 h, c terminus: native)
47 | TLNKCAVMKLEISPHRKRSDDSDE [DLC1] | 4.11 ± 0.31 | 4.29 ± 0.094 |  | 
48 | DINREQLNDIFHLLKSHTNVLSVN [TPH1] | 2.18 ± 0.17 | 2.27 ± 0.23 |  | 
49 | GSKKKFDKCMVCGGDGSGCSKQSG [ADAMTS4] | 4.18 ± 0.4 | 4.02 ± 0.34 |  | 
50 | PNPGFSMLDFLSERPWIKRMIFKL [APMAP] | 2.05 ± 0.2 | 2.36 ± 0.66 |  | 
51 | VGQDNGAVMEFHVSEDFNKMNFIK [WDFY1] | 3.29 ± 1.1 | 3.14 ± 0.36 |  | 
52 | FTAALEHCRENAHDKIRPISSIGQ [SPACA9] | 3.3 ± 0.088 | 3.41 ± 0.25 |  | 
53 | QTVTVEEAAGGESALAPSVFKQAK [MAP2] | 5.21 ± 0.32 | 5.38 ± 0.45 |  | 
54 | DRDGTINLSEFQHVISRSPDFASS [CIB1] | 4.31 ± 0.28 | 4.31 ± 0.24 |  | 
55 | PAPSPAKEERKTEVVMNSQQTPVG [PALM] | 5.52 ± 0.19 | 5.46 ± 0.13 |  | 
56 | YGYLPEDKVLGTFEFDETSFWNSS [KLHDC2] | 2.66 ± 0.25 | 2.98 ± 0.34 |  | 
57 | IGVILFSSAVYFAEADEPTTHFQS [KCNA4] | 2.36 ± 0.58 | 2.69 ± 1 |  | 
58 | CHDKYTKIFNDFKDRMKSDHKRET [ZMYND11] | 4.08 ± 0.28 | 3.9 ± 0.28 |  | 
59 | LNVFQTVSRMRTQRAFSIQTPEQY [PTPN9] | 2.38 ± 0.33 | 2.54 ± 0.31 |  | 
60 | KSDSPTGDVLLDETLKHIKATEPT [GOLPH3L] | 5.16 ± 0.27 | 5.26 ± 0.15 |  | 
61 | PPRGAVERHSDLPPLNPTSWWADL [SPNS1] | 3.28 ± 0.29 | 3.34 ± 0.29 |  | 
62 | DDRKLAALLKFHTLDSYEDKQKLK [YJU2B] | 3.97 ± 0.28 | 4.12 ± 0.27 |  | 
63 | RREVERKQKGSEENLDEAREQKEK [ADD1] | 5.5 ± 0.29 | 4.91 ± 0.87 |  | 
64 | LWVQGDIFRSKLKNRPSSEGSINK [CDC14A] | 2.62 ± 0.19 | 2.92 ± 0.62 |  | 
65 | DKGEKLLRCKLAAFYRLADLFGWS [ADD1] | 2.59 ± 0.64 | 2.28 ± 0.24 |  | 
66 | GKKEIKPFKRFLRKKSKPKKCVKK [SMOC2] | 3.1 ± 0.25 |  |  | 
67 | DNEDSELNGDYGENIYPYEEDKDE [MIA2] | 5.37 ± 0.24 | 4.86 ± 1.1 |  | 
68 | TGIEGNWGRLLEQVGTMALWASQR [ZBED2] | 1.98 ± 0.57 | 2.48 ± 0.49 |  | 
69 | KTMQSEETRVWHRRDGKWQNVHFH [CAMK2D] | 2.85 ± 0.15 | 3.14 ± 0.16 |  | 

Row | Sequence | protein stability index [1] | protein stability index [2] | protein stability index (treatment: DMSO, c terminus: native) | protein stability index (treatment: MLN4924 1 uM, 8 h, c terminus: native)
70 | GRRATLQRLVEALEENELTSLAED [TRADD] | 4.54 ± 0.19 | 4.43 ± 0.14 |  | 
71 | NLQCLYCEKTFRDKNTLKDHMRKK [ZNF277] | 3.29 ± 0.42 | 3.39 ± 0.66 |  | 
72 | SPSGAALPLPLSLAPPPLPLPAAA [ZBTB22] | 3.92 ± 0.25 | 4.2 ± 0.29 |  | 
73 | LKNIELFDKLALRFHGRLLFLKDV [KCTD13] | 2.66 ± 0.77 | 2.11 ± 0.15 |  | 
74 | EKPIGSCVTNPCGPRSRCGPCNTF [KRT33B] | 2.34 ± 0.24 | 2.52 ± 0.27 |  | 
75 | ILGRGLQEYQLPYQRVLPLPIFTP [TCAP] | 2.25 ± 0.21 | 2.37 ± 0.12 |  | 
76 | LEVPAGSRLNLTGLGYFSCHSHTV [CCDC3] | 2.57 ± 0.33 | 2.2 ± 0.25 |  | 
77 | LMKGGADLFVENMPGFPDNIRPSS [APMAP] | 3.66 ± 0.1 | 3.77 ± 0.33 |  | 
78 | EEAPELDEAELDYLMDVLVGTQAL [SERTAD1] | 4.05 ± 0.25 | 4.22 ± 0.16 |  | 
79 | RTIVEEVQDGKVISSREQVHQTTR [KRT17] | 4.69 ± 0.25 | 5.01 ± 0.38 |  | 
80 | FELALQLAEMKDDSDSEKQQQIHH [VPS39] | 4.76 ± 0.17 | 4.8 ± 0.12 |  | 
81 | IREQIKKYRRHFLRFCHNNKKAKR [EIF5] | 2.35 ± 0.19 | 2.33 ± 0.16 |  | 
82 | SSPPQGASPVPESSLTADLLSVDA [SNAP91] | 5.28 ± 0.18 | 5.34 ± 0.16 |  | 
83 | RLQQELEQQRCLLLARLRELEQQI [TRIM15] | 3.68 ± 0.2 | 3.69 ± 0.39 |  | 
84 | NETVNSIFAQGAPRSSLAESFFVD [ADAMTSL2] | 3.77 ± 0.086 | 3.86 ± 0.073 |  | 
85 | GCWAWPLAGLSVGRSSLTACSLPL [PXN] | 1.99 ± 0.86 | 2.15 ± 0.82 |  | 
86 | LYGFLLTFGFITMTPQLFINYKLK [CLPTM1] | 3.12 ± 0.64 | 3.44 ± 0.32 |  | 
87 | FFVVETLCIIWFSFELLVRFFACP [KCNA3] | 3.11 ± 0.52 | 2.74 ± 0.42 |  | 
88 | NRQTFVNSAIRFLRKYSFDGLDLD [CHIT1] | 1.99 ± 0.27 | 2.48 ± 0.22 |  | 
89 | TISFICRELDAISTNEEEKEENEA [PRIM1] | 5.16 ± 0.26 | 5.16 ± 0.1 |  | 
